The values that follow come from the supplement of paper PMC7877785.

± gives the uncertainty stated by the source.

This data set is described as follows: self-splicing fitness, log relative to wild type (ln ratio); higher = more splicing; Tetrahymena group I intron in knt gene, E. coli kanamycin selection, DiMSum; sequences stand for … in CUCUCU…GGAGGGAAAAGUUAUCAGGCAUGCACCUGGUAGCUAGUCUUUAAACCAAUAGAUUGCAUCGGUUUAAAAGGCAAGACCGUCAAAUUGCGGGAAAGGGGUCAACAGCCGUUCAGUACCAAGUCUCAGGGGAAACUUUGAGAUGGCCUUGCAAAGGGUAUGGUAAUAAGCUGACGGACAUGGUCCUAACCACGCAGCCAAGUCCUAAGUCAACAGAUCUUCUGUUGAUAUGGAUGCAGUUCACAGACUAAAUGUCGGUCGGGGAAGAUGUAUUCUUCUCAUAAGAUAUAGUCGGACCUCUCCUUAAUGGGAGCUAGCGGAUGAAGUGAUGCAACACUGGAGCCGCUGGGAACUAAUUUGUAUGCGAAAGUAUAUUGAUUAGUUUUGGAGUACUCGUGGUCG
Summed up:
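Fitness was computed with DiMSum as the error-weighted combination of replicate fold changes, kanamycin versus none, each normalised to wild type. The library randomised all eight intron nucleotides of the P1ex region, with the intron placed in the knt kanamycin-resistance gene on pET-22b(+) in E. coli BL21(DE3). Six replicate transformations were grown overnight at 37°C or 30°C on LB agar with or without 25 μg/mL kanamycin, plus 100 μg/mL carbenicillin, 50 μM IPTG and 0.2% rhamnose. Pooled colonies were amplicon-sequenced on an Illumina HiSeq 2500.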

As for CAUUAGCAAUAUUACGAAGG, the “self-splicing fitness (ln)” value was -1.09 ± 0.089 (30 °C) and -0.624 ± 0.099 (37 °C).

Turning to AUAGAGCAAUAUUACGCUAC, the “self-splicing fitness (ln)” value (30 °C) was -2.79 ± 0.2 and the “self-splicing fitness (ln)” value (37 °C) was -2.36 ± 0.2.

As to CUAUAGCAAUAUUACGUAAC, the “self-splicing fitness (ln)” value (30 °C) is -1.97 ± 0.42. For GCCAAGCAAUAUUACGUUGU, the “self-splicing fitness (ln)” value (30 °C) is -1.79 ± 0.064 and the “self-splicing fitness (ln)” value (37 °C) is -0.73 ± 0.072. For the sequence CCCAAGCAAUAUUACGCGUC, the “self-splicing fitness (ln)” value reads like this: (30 °C) -3.06 ± 0.16; (37 °C) -2.6 ± 0.29. In the case of UCAAAGCAAUAUUACGUUGC, the “self-splicing fitness (ln)” value by setting is: (30 °C) -3.48 ± 0.19; (37 °C) -3.23 ± 0.26. In the case of AACAAGCAAUAUUACGCUUG, the “self-splicing fitness (ln)” value was -2.82 ± 0.12 (30 °C) and -2.28 ± 0.16 (37 °C). Take GUACAGCAAUAUUACGAGCG: the “self-splicing fitness (ln)” value reads like this: (30 °C) -2.59 ± 0.11; (37 °C) -0.624 ± 0.098. In the case of CGCAAGCAAUAUUACGUGUU, the “self-splicing fitness (ln)” value is -3.48 ± 0.11 (30 °C) and -2.9 ± 0.14 (37 °C).

As for CUGUAGCAAUAUUACGUCUA, the “self-splicing fitness (ln)” value (37 °C) was -1.78 ± 0.39.

On to ACUGAGCAAUAUUACGCCCG, for which the “self-splicing fitness (ln)” value by setting is: (30 °C) -2.15 ± 0.25; (37 °C) -0.509 ± 0.22. As to ACAUAGCAAUAUUACGCUUG, the “self-splicing fitness (ln)” value by setting is: (30 °C) -1.76 ± 0.11; (37 °C) -1.28 ± 0.14. As to UCCUAGCAAUAUUACGCAUC, the “self-splicing fitness (ln)” value is, setting by setting: (30 °C) -2.3 ± 0.21; (37 °C) -1.27 ± 0.22. Regarding UCCGAGCAAUAUUACGCCAU, the “self-splicing fitness (ln)” value is -2.56 ± 0.28 (30 °C) and -3.16 ± 0.4 (37 °C).

With CUGUAGCAAUAUUACGCUGC, the “self-splicing fitness (ln)” value (30 °C) was -3.17 ± 0.3. Regarding AAACAGCAAUAUUACGCUGA, the “self-splicing fitness (ln)” value is -3.16 ± 0.14 (30 °C) and -1.52 ± 0.11 (37 °C). The like results for GUACAGCAAUAUUACGGCGG were, in that order, -2.78 ± 0.19 and -2.66 ± 0.22.

UUAGAGCAAUAUUACGUAAG: the “self-splicing fitness (ln)” value (30 °C) is -2.23 ± 0.097 and the “self-splicing fitness (ln)” value (37 °C) was -1.2 ± 0.1.

On to UCAGAGCAAUAUUACGCUAA, for which, where the note is “37 °C”, the “self-splicing fitness (ln)” value was found to be 1.19 ± 0.3.

Regarding GCCCAGCAAUAUUACGUGGG, the “self-splicing fitness (ln)” value was -3.2 ± 0.12 (30 °C) and -3.07 ± 0.2 (37 °C). The like results for UGUGAGCAAUAUUACGUUUA were, in that order, -2.98 ± 0.32 and -3.17 ± 0.47. For AGCGAGCAAUAUUACGACCA, the “self-splicing fitness (ln)” value (30 °C) was -1.37 ± 0.22 and the “self-splicing fitness (ln)” value (37 °C) is -1.08 ± 0.22. Regarding UCAUAGCAAUAUUACGCUAU, the “self-splicing fitness (ln)” value is -2.88 ± 0.39 (30 °C) and -2.08 ± 0.47 (37 °C). With ACAGAGCAAUAUUACGUUUC, the “self-splicing fitness (ln)” value (37 °C) is -2.31 ± 0.39. In the case of AGUCAGCAAUAUUACGAGAU, the “self-splicing fitness (ln)” value is, setting by setting: (30 °C) -2.61 ± 0.11; (37 °C) -1.76 ± 0.1. The like results for UAGAAGCAAUAUUACGCAAG were, in that order, -2.33 ± 0.2 and -0.64 ± 0.17. Take AUUAAGCAAUAUUACGCCCA: the “self-splicing fitness (ln)” value was -1.11 ± 0.19 (30 °C) and -0.42 ± 0.29 (37 °C). For GAUGAGCAAUAUUACGGUUU, the “self-splicing fitness (ln)” value is, setting by setting: (30 °C) -2.06 ± 0.097; (37 °C) -1.04 ± 0.13.

For UGGGAGCAAUAUUACGCAUC, the “self-splicing fitness (ln)” value reads like this: (30 °C) -3 ± 0.32; (37 °C) -2.58 ± 0.38.

Consider ACCCAGCAAUAUUACGAAGG, for which the “self-splicing fitness (ln)” value reads like this: (30 °C) -1.71 ± 0.071; (37 °C) -0.892 ± 0.1. For CGGUAGCAAUAUUACGGUGU the same measures were -3.24 ± 0.17 and -2.04 ± 0.17. For GAUCAGCAAUAUUACGUGUU the same measures were -1.75 ± 0.06 and -1.48 ± 0.09. For the sequence CGAAAGCAAUAUUACGUUAG, the “self-splicing fitness (ln)” value (30 °C) is -0.97 ± 0.068 and the “self-splicing fitness (ln)” value (37 °C) is -0.895 ± 0.082. As for UCGAAGCAAUAUUACGCGCG, the “self-splicing fitness (ln)” value reads like this: (30 °C) -1.26 ± 0.1; (37 °C) -0.735 ± 0.12. For CACAAGCAAUAUUACGUCUA, the “self-splicing fitness (ln)” value is, setting by setting: (30 °C) -1.42 ± 0.087; (37 °C) -1.26 ± 0.084. Turning to ACCUAGCAAUAUUACGCUUA, the “self-splicing fitness (ln)” value was -1.73 ± 0.11 (30 °C) and -0.883 ± 0.1 (37 °C). Turning to UAGCAGCAAUAUUACGGACU, the “self-splicing fitness (ln)” value is -1.07 ± 0.1 (30 °C) and -0.713 ± 0.15 (37 °C). As to CUAAAGCAAUAUUACGACAG, the “self-splicing fitness (ln)” value was 0.277 ± 0.093 (30 °C) and 0.751 ± 0.12 (37 °C). For AUCAAGCAAUAUUACGACAC the same measures were -1.45 ± 0.079 and -0.324 ± 0.11.

Turning to AUAUAGCAAUAUUACGGAGC, the “self-splicing fitness (ln)” value (37 °C) is -2.15 ± 0.46.

As for GUGCAGCAAUAUUACGAACA, the “self-splicing fitness (ln)” value by setting is: (30 °C) -1.32 ± 0.22; (37 °C) -1.25 ± 0.2. For the sequence CAUAAGCAAUAUUACGGCCU, the “self-splicing fitness (ln)” value is -3.3 ± 0.37 (30 °C) and -2.79 ± 0.4 (37 °C). The like results for GCUCAGCAAUAUUACGACCA were, in that order, -0.232 ± 0.18 and -0.532 ± 0.15. As for CUGAAGCAAUAUUACGGCGU, the “self-splicing fitness (ln)” value (30 °C) was -3.6 ± 0.41 and the “self-splicing fitness (ln)” value (37 °C) was -2.98 ± 0.47. In the case of GGUUAGCAAUAUUACGUGCA, the “self-splicing fitness (ln)” value (30 °C) was -0.869 ± 0.19 and the “self-splicing fitness (ln)” value (37 °C) is -0.121 ± 0.18. Take GGAGAGCAAUAUUACGUUGU: the “self-splicing fitness (ln)” value was -4.01 ± 0.19 (30 °C) and -3.77 ± 0.24 (37 °C).

For the sequence GGCAAGCAAUAUUACGCUUU, the “self-splicing fitness (ln)” value by setting is: (30 °C) -1.58 ± 0.12; (37 °C) -0.416 ± 0.12. For AUACAGCAAUAUUACGGAAC, the “self-splicing fitness (ln)” value by setting is: (30 °C) -3.46 ± 0.43; (37 °C) -1.67 ± 0.35. As for GCAGAGCAAUAUUACGUAUU, the “self-splicing fitness (ln)” value is, setting by setting: (30 °C) -3.82 ± 0.23; (37 °C) -1.9 ± 0.16. As to UAGCAGCAAUAUUACGUUAU, the “self-splicing fitness (ln)” value is, setting by setting: (30 °C) -3.74 ± 0.23; (37 °C) -2.92 ± 0.24. Consider GCCGAGCAAUAUUACGCCGU, for which the “self-splicing fitness (ln)” value is, setting by setting: (30 °C) -3.28 ± 0.29; (37 °C) -1.75 ± 0.19. With CCCUAGCAAUAUUACGAUUG, the “self-splicing fitness (ln)” value by setting is: (30 °C) -3.45 ± 0.21; (37 °C) -2.38 ± 0.21. CGUCAGCAAUAUUACGGGGA: the “self-splicing fitness (ln)” value by setting is: (30 °C) -2.96 ± 0.16; (37 °C) -1.91 ± 0.14. In the case of CGUGAGCAAUAUUACGACAA, the “self-splicing fitness (ln)” value (37 °C) was -3.33 ± 0.25. For the sequence UUUAAGCAAUAUUACGAUUC, the “self-splicing fitness (ln)” value reads like this: (30 °C) -2.23 ± 0.23; (37 °C) -0.889 ± 0.19. As to GAGGAGCAAUAUUACGUAAU, the “self-splicing fitness (ln)” value is, setting by setting: (30 °C) -3.87 ± 0.22; (37 °C) -2.54 ± 0.19.

Turning to CGAUAGCAAUAUUACGUGCG, the “self-splicing fitness (ln)” value reads like this: (30 °C) -2.23 ± 0.089; (37 °C) -1.04 ± 0.1. As for UGAAAGCAAUAUUACGCGUU, the “self-splicing fitness (ln)” value by setting is: (30 °C) -3.19 ± 0.19; (37 °C) -3.1 ± 0.29. For CUGCAGCAAUAUUACGACUA, the “self-splicing fitness (ln)” value by setting is: (30 °C) -1.58 ± 0.13; (37 °C) -1.09 ± 0.12. GUGCAGCAAUAUUACGAAUA: the “self-splicing fitness (ln)” value by setting is: (30 °C) -1.79 ± 0.14; (37 °C) -1.07 ± 0.17.

As to GUUAAGCAAUAUUACGCGCU, the “self-splicing fitness (ln)” value runs as follows: (30 °C) -2 ± 0.16; (37 °C) -1.63 ± 0.2. Regarding GGCAAGCAAUAUUACGUAAC, the “self-splicing fitness (ln)” value by setting is: (30 °C) -0.613 ± 0.064; (37 °C) -0.533 ± 0.089.
